The source of these data is PMC3989220.

As a reminder, the Ki is a dissociation constant, usually derived from enzyme kinetics or from competition with a known ligand.

Read-outs that look alike come from different tables or passages of the source.

Assay [1] addresses Glucokinase (GK) cloned from rat hypothalamic tanycyte cultures, recombinant (rat) (UniProt P17712). Briefly: enzyme inhibition kinetics (glucose-6-phosphate dehydrogenase-coupled GK activity assay, Segel plot); GK saturation curves with glucose in the presence of 0.1 and 0.2 µM purified GKRP; 200 mM Tris-HCl pH 7.5, 2 mM MgCl2, 1 mM DTT, 1 mM ATP, 0.5 mM NADP+, 37°C, 5 min; Ki from Segel's graph for an allosteric modulator of a cooperative enzyme.

Assay [2] has the same target.
The target is the same in assay [3]. The assay is described as follows: enzyme inhibition kinetics (glucose-6-phosphate dehydrogenase-coupled GK activity assay, Segel plot); GK saturation curves with glucose in the presence of 0.1 and 0.2 µM purified GKRP; 200 mM Tris-HCl pH 7.5, 2 mM MgCl2, 1 mM DTT, 1 mM ATP, 0.5 mM NADP+, 37°C, 5 min; Ki from Segel's graph for an allosteric modulator of a cooperative enzyme. This is another data set of the same source.

The target of a further assay is GKRP (Rattus norvegicus) (UniProt Q07071). As to conditions: cited from earlier work.
UniProt Q07071, sequence (Q07071 whole entry): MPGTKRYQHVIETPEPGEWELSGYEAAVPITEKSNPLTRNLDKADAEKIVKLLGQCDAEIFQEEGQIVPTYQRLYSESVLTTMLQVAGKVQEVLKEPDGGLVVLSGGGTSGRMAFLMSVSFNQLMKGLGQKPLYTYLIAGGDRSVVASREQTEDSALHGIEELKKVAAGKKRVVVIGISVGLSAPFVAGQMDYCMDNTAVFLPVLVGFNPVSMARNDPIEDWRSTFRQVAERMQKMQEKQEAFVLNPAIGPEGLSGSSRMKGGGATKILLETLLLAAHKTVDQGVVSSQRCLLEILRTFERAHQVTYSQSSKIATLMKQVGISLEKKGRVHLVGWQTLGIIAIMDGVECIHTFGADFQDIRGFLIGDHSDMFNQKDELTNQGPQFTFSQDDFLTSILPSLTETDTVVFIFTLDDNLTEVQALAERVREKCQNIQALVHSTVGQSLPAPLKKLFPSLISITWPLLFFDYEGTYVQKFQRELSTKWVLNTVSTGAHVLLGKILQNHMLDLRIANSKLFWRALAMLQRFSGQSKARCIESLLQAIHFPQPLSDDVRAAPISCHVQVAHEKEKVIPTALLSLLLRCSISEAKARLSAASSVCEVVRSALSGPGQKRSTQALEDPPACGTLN

For “Glucokinase regulatory protein (GKRP) cloned from rat hypothalamic tanycyte cultures, recombinant (from UniProt Q07071 1-627) (natural protein)”, the results for the Ki in assay [1] and in assay [3] were 210 µM and 0.21 µM, respectively. The GK activity (glucose-6-phosphate dehydrogenase-coupled assay) at 5 min with 10 mM glucose and 0.05-0.25 µM GKRP; IC50 by nonlinear extrapolation in assay [2] was 280 µM.

Take Glucokinase (from UniProt P17712): the Ki with GKRP (Rattus norvegicus) is 1 µM.
